Where a chain is given by its changes, count along the chain named. Names may count otherwise.
Assays:
[1] = molecular target: T1, human CD8A-Fc (recombinant human CD8 alpha fused to Fc fragment of human IgG1) (human, UniProt P01732 22-182, limits assumed); experiment: SPR, dissociation rate on recombinant CD8 alpha
T1 construct: SPR ligand, captured by goat anti-human Fc; also called hCD8A-Fc; recombinant CD8 alpha; not shown: linker with flag (and polyhistidine) tag and Fc fragment of human IgG1; depends on which of the two constructs was used
T1 sequence (P01732 22-182 limits assumed): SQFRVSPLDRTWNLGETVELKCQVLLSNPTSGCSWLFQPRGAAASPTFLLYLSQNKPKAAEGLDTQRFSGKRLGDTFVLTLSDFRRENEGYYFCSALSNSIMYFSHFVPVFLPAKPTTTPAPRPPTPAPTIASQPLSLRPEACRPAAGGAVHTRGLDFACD

[2] = molecular target: T1, human CD8A-Fc (recombinant human CD8 …); experiment: SPR (ProteOn), captured hCD8A-Fc, heterogeneous ligand fit, lower affinity population
Experimental: (§1) Human CD8A-Fc was then captured at five surface densities ranging from 200 to 1200 response units, leaving the 6th channel as empty channel control for GAH-Fc IgG surface. Binding was measured by flowing five different concentrations of anti-CD8A FN3 domains (1 μM diluted in a 3-fold dilution series) as analytes simultaneously in the horizontal orientation over the captured hCD8A-Fc surfaces, with a sixth analyte channel containing only running buffer PBST. All interactions were measured at 100 uL/min flow rate with association and dissociation times being 4, 30 minutes respectively. […] Data analyses were performed using Bio-Rad ProteOn Manager software (version 3.1.0.6). Raw data were double referenced by subtraction of the interspot (empty chip surface, no protein immobilized or captured) signals to correct the non-specific binding of the FN3 domain to the pre-coated GAH-Fc IgG surface, followed by a double referencing using the buffer blank response (to correct for any baseline drift resulting from ligand dissociation over time). […] Given that the GAH-Fc capture of hCD8A-Fc format is the least disruptive relative to other formats in introducing potential experimental artifacts (such as ligand activity loss and/or artificial eptiopes/heterogeneous ligand population due to amine coupling), it is considered that the results from the GAH-Fc capture experiments reported here represent the most reliable ProteOn SPR data, despite the non-conforming 1:1 Langmuir fits observed in many instances. A heterogeneous ligand model was chosen to fit the data assuming two different ligand species, either due to the heterogeneity in the ligand protein population or due to potential different mechanisms for each FN3 domain binding to the 2 hCD8A monomers in the Fc fusion protein.

[3] = molecular target: T1, human CD8A-Fc (recombinant human CD8 …); experiment: SPR (ProteOn), captured hCD8A-Fc, heterogeneous ligand fit, higher affinity population
Experimental: as §1

[4] = molecular target: T1, human CD8A-Fc (recombinant human CD8 …); experiment: SPR (ProteOn), captured hCD8A-Fc, heterogeneous ligand fit, lower affinity population; lower affinity population, heterogeneous ligand fit
Experimental: Human CD8A-Fc was then captured at five surface densities ranging from 200 to 1200 response units, leaving the 6th channel as empty channel control for GAH-Fc IgG surface. Binding was measured by flowing five different concentrations of anti-CD8A FN3 domains (1 μM diluted in a 3-fold dilution series) as analytes simultaneously in the horizontal orientation over the captured hCD8A-Fc surfaces, with a sixth analyte channel containing only running buffer PBST. All interactions were measured at 100 uL/min flow rate with association and dissociation times being 4, 30 minutes respectively. […] Data analyses were performed using Bio-Rad ProteOn Manager software (version 3.1.0.6). Raw data were double referenced by subtraction of the interspot (empty chip surface, no protein immobilized or captured) signals to correct the non-specific binding of the FN3 domain to the pre-coated GAH-Fc IgG surface, followed by a double referencing using the buffer blank response (to correct for any baseline drift resulting from ligand dissociation over time). […]

[5] = molecular target: T2, cynomolgus monkey CD8A on cyno CD8+ T cells (cynomolgus monkey, UniProt P01732 23-235 (human entry)); experiment: flow cytometry on cyno CD8+ T cells
T2 construct: also called cyno T-cells; Cyno CD8alpha
T2 sequence (P01732 other isoform, or with tags, fused parts or gaps limits assumed): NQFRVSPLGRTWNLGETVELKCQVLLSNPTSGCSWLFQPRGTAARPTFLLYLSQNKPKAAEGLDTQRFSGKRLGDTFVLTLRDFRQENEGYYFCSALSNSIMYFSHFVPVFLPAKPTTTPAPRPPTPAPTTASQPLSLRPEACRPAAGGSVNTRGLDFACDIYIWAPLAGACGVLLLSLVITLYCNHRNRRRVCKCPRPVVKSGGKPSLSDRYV
Experimental: (§2) A full dose response binding curve was generated for the nineteen selected anti-CD8A FN3 domains. Each candidate was diluted to 20 μM in PBS followed by a 1:3 dilution series to generate either an 11-point or an 18-point dose response curve. Human or cyno CD8+ T cells were incubated with the diluted FN3 domain for 1 hour at 4° C. Cells were washed once with PBS and incubated with an anti-centyrin antibody (PAB25) for 1 hour at 4° C. The cells were washed twice with PBS, followed by incubation with a PE-secondary, anti-CD3-PacB, anti-CD4-APC, and a viability dye. Finally, cells were washed and resuspended in PBS for flow cytometric analysis using a BD Canto Instrument. CD8 T cells were defined as live CD3+CD4− cells. Median fluorescence intensity of the bound Centyrins (PE channel) and % of cells showing positive staining calculated using Cytobank software. Results were graphed using Prism and EC₅₀ values were calculated using the 4 parameter dose response variable slope equation.

[6] = molecular target: T3, human CD8A on primary human CD8+ T cells (human, UniProt P01732 22-235); experiment: flow cytometry on human CD8+ T cells
T3 construct: whole, on cells; also called Human T-cells; CD8 alpha
T3 sequence (P01732 22-235): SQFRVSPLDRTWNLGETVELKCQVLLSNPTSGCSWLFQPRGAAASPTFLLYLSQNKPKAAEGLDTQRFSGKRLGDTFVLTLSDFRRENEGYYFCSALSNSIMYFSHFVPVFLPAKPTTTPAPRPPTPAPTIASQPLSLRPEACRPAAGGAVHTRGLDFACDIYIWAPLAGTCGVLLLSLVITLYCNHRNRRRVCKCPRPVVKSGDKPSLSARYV
Experimental: as §2

[7] = molecular target: T3, human CD8A on primary human CD8+ T cells; experiment: MSD-CAT equilibrium cell binding, primary human CD8 T cells
Experimental: A MesoScale Discovery-Cell Affinity Technology (MSD-CAT) based equilibrium cell-binding assay was performed to determine the affinity of the top six anti-CD8A candidates binding to primary human cytotoxic T cell surface CD8A receptors. Each anti-CD8A FN3 domain at a constant concentration of […] was pre-incubated with 10 different concentrations of primary cytotoxic CD8 T cells (columns 2-11 in a row). Cell viability was checked prior to the binding measurements and a >85% viability was desired for valid analysis. Since these cells were from different donors, in case of donor-to-donor variations, only cells of the same donors were combined together. Each individual anti-CD8A FN3 domain binding was measured in replicates using cells from the same donors. Cells and FN3 domains were incubated overnight at 4° C. on a rotator to reach equilibrium. Following the incubation the cells were spun down along with cell bound anti-CD8A FN3 domains and the unbound (free) anti-CD8A FN3 domains in the supernatants is quantified using MSD assays where biotinylated recombinant hCD8A-Fc protein was captured at 0.6 ug/mL in assay buffer to streptavidin MSD plates overnight ˜16 hours at 4° C. After blocking the plate, supernatant with free anti-CD8A FN3 domains was added to the plate and incubated for 1 hr, then followed by SulfoTag pAb139 (In-house) detection at 1.6 ug/ml. A buffer control without any FN3 domain and hCD8A (plate background binding control) in column 1 and FN3 domain alone control without hCD8A (100% free/unbound) in column 12 were included. Mouse Anti-hCD8A mAb (mIgG1k, BD Biosciences, cat #555364, clone RPA-T8) was included as a positive control. Tencon27 was included in the initial assay validation as a negative control and no significant binding was observed, and therefore, was not included in the later cell binding due to the cell availability. Plates were read immediately on the MSD Sector Imager 6000™ Reader for luminescence levels after adding MSD Read Buffer by diluting 1:4 of stock into H2O.
Raw MSD data were exported and analysed in Prism using a non-linear fit with variable slope function to derive the Bmax and Hillslope values. Only those with converged Bmax values and hillslope within the range of −1.5˜−0.5 (ideal −1.0) will be considered for further analysis.

human CD8A on cells = molecular target: T4, human CD8A on cells (human, UniProt P01732 22-235); experiment: MSD-CAT equilibrium cell-binding assay on primary human cytotoxic CD8 T cells
T4 construct: whole, on cells; also called CD8A receptors on primary human cytotoxic T cells
T4 sequence (P01732 22-235): as above
Experimental: A MesoScale Discovery-Cell Affinity Technology (MSD-CAT) based equilibrium cell-binding assay was performed to determine the affinity of the top six anti-CD8A candidates binding to primary human cytotoxic T cell surface CD8A receptors. Each anti-CD8A FN3 domain at a constant concentration of […] was pre-incubated with 10 different concentrations of primary cytotoxic CD8 T cells (columns 2-11 in a row). Cell viability was checked prior to the binding measurements and a >85% viability was desired for valid analysis. Since these cells were from different donors, in case of donor-to-donor variations, only cells of the same donors were combined together. Each individual anti-CD8A FN3 domain binding was measured in replicates using cells from the same donors. […] Following the incubation the cells were spun down along with cell bound anti-CD8A FN3 domains and the unbound (free) anti-CD8A FN3 domains in the supernatants is quantified using MSD assays where biotinylated recombinant hCD8A-Fc protein was captured at 0.6 ug/mL in assay buffer to streptavidin MSD plates overnight ˜16 hours at 4° C. […] Plates were read immediately on the MSD Sector Imager 6000™ Reader for luminescence levels after adding MSD Read Buffer by diluting 1:4 of stock into H2O.
Raw MSD data were exported and analysed in Prism using a non-linear fit with variable slope function to derive the Bmax and Hillslope values. […]

B1: P282DR9P1359_F5 (designed binder)
chain: LPAPKNLVVSRVTEDSARLSWTAPDAAFDSFQIAYPEWPPPGEAIVLTVPGSERSYDLTGLKPGTEYFVIIQGVKGGVESWPLSAIFTT
notes: FN3 domain (Centyrin); purified as His-tagged protein, tag not in the entry
koff [1]: 5.78e-05 s⁻¹ | koff [2]: 6.6e-05 s⁻¹ | kon [2]: 34800 M⁻¹ s⁻¹ | Kd [3]: 0.04 nM | koff [3]: 1.42e-05 s⁻¹ | kon [3]: 380000 M⁻¹ s⁻¹ | Kd [4]: 6.6 nM

B2: CD8S365 (designed binder)
chain: LPAPKNLVVSRVTEDSARLSWTAPDAAFDSFGILYYEPVDSGEAITLPVPGSCRSYDLTGLKPGTEYWVVITGVKGGAPSTPLGTIFTT
notes: P282ER9P1360_C8 with E54C; the entry holds the mutation
EC50 [5]: 124 nM | EC50 [6]: 556 nM | Kd [7]: 0.167 nM

B3: CD8S366 (designed binder)
chain: LPAPKNLVVSRVTEDSARLSWTAPDAAFDSFWITYPEWPDPGGEAIVLTVPGSCRSYDLTGLKPGTEYFVVIYGVKGGEIYSPLSAIFTT
notes: P282DR9P1359_C5 with E54C; the entry holds the mutation
EC50 [5]: 69.5 nM | EC50 [6]: 163 nM | Kd [7]: 0.123 nM

B4: CD8S367 (designed binder)
chain: B1 chain with Q32A, P41Q, E53C, I70V, Q72Y, V78S, E79Y, W81A
notes: P282DR9P1359_F7 with E54C; the entry holds the mutation
EC50 [5]: 50.8 nM | EC50 [6]: 194 nM | Kd [7]: 0.225 nM

B5: CD8S368 (designed binder)
chain: B1 chain with E53C
notes: P282DR9P1359_F5 with E54C; the entry holds the mutation
EC50 [5]: 70 nM | EC50 [6]: 155 nM | Kd [7]: 0.459 nM

B6: CD8S369 (designed binder)
chain: LPAPKNLVVSRVTEDSARLSWAKRPGAFDSFLIQYQESEKVGEAIVLTVPGSCRSYDLTGLKPGTEYTVSIYGVDVKYDIDSRPISSNPLSAIFTT
notes: P283AR9P1362_D6 with E54C; the entry holds the mutation
EC50 [5]: 72.3 nM | EC50 [6]: 124 nM | Kd [7]: 2.81 nM

B7: CD8S370 (designed binder)
chain: LPAPKNLVVSRVTEDSARLSWTAPDAAFDSFAITYIEKEHIEDGEAIVLTVPGSCRSYDLTGLKPGTEYWVPIWGVKGGANSWPLSAIFTT
notes: P282DR9P1359_G7 with E54C; the entry holds the mutation
EC50 [5]: 67.6 nM | EC50 [6]: 209 nM | Kd [7]: 0.869 nM

B8: Tencon27 (designed binder)
chain: LPAPKNLVVSRVTEDSARLSWTAPDAAFDSFLIQYQESEKVGEAIVLTVPGSERSYDLTGLKPGTEYTVSIYGVKGGHRSNPLSAIFTT
notes: negative control scaffold; also called Stabilized Tencon
binding result (human CD8A on cells): no binding
